According to patent US9370555B2, “Surfactant protein D for the treatment of disorders associated with lung injury” (priority 1998, dated 2016):
“Also recorded” adds a separate entry of the source.

Legend:
[1] = test system: premature lambs; assay: Lung function and morphology in ventilated premature lambs; assay type: in vivo, sheep
[2] = test system: premature lambs; assay: Pulmonary inflammation in ventilated premature lambs (BALF cells, NE activity, cytokine mRNA and protein, flow cytometry); assay type: in vivo, sheep
Description: A five hour study period was chosen to detect changes in proinflammatory cytokine mRNAs induced by initial ventilation (Naik A S, et al. Effects of ventilation with different positive end-expiratory pressures on cytokine expression in the preterm lamb lung. Am J Respir Crit Care Med 2001; 164:494-498). After five hours, lambs were ventilated with FiO2=1 for five minutes, then given 100 mg pentobarbital intravascularly, after which the endotracheal tube was clamped to permit oxygen absorption atelectasis (Ikegami M, et al. Intratracheal recombinant surfactant protein D prevents endotoxin shock in the newborn preterm lamb. Am J Respir Crit Care Med 2006; 173:1342-1347; Ikegami M, Jobe A. Postnatal lung inflammation increased by ventilation of preterm lambs exposed antenatally to E. coli endotoxin. Pediatr Res 2002; 52:356-362). After the thorax was opened, the deflation limb of pressure-volume curve was measured (Kramer B W, et al. Surfactant protein A recruits neutrophils into the lungs of ventilated preterm lambs. Am J Respir Crit Care Med 2001; 163:158-165; Ikegami M, et al. Intratracheal recombinant surfactant protein D prevents endotoxin shock in the newborn preterm lamb. Am J Respir Crit Care Med 2006; 173:1342-1347). Lung tissue of the right lower lobe was frozen in liquid nitrogen for RNA isolation and measurement of neutrophil elastase (NE) activity (Lowry O H, et al. Protein measurement with the Folin phenol reagent. J Biol Chem 1951; 193:265-275; Watterberg K L, et al. Secretory leukocyte protease inhibitor and lung inflammation in developing bronchopulmonary dysplasia. J Pediatr 1994; 125:264-269). NE is a potent serine proteinase, responsible for tissue destruction in the adult lung with emphysema (Shapiro S D, et al. Neutrophil elastase contributes to cigarette smoke-induced emphysema in mice. Am J Pathol 2003; 163:2329-2335). In the preterm newborn lung, increased NE activity affects lung remodeling and increases alveolar epithelial apoptosis and the development of BPD (Watterberg K L, et al. Secretory leukocyte protease inhibitor and lung inflammation in developing bronchopulmonary dysplasia. J Pediatr 1994; 125:264-269; Yasumatsu R, et al. SERPINB1 upregulation is associated with in vivo complex formation with neutrophil elastase and cathepsin G in a baboon model of bronchopulmonary dysplasia. Am J Physiol Lung Cell Mol Physiol 2006; 291:L619-L627). NE activity was assessed by a spectrophotometric assay using a chromogenic substrate specific for NE, N-methoxy-succinyl-Ala-Ala-Pro-Val pNA (Yasumatsu R, et al. SERPINB1 upregulation is associated with in vivo complex formation with neutrophil elastase and cathepsin G in a baboon model of bronchopulmonary dysplasia. Am J Physiol Lung Cell Mol Physiol 2006; 291:L619-L627).
; Lung tissue of the right middle lobe was homogenized in 0.9% NaCl and supernatant after centrifugation at 1,000×g for 15 minutes and frozen for ELISA of proinflammatory cytokine proteins (Kramer B W, et al. Surfactant protein A recruits neutrophils into the lungs of ventilated preterm lambs. Am J Respir Crit Care Med 2001; 163:158-165; Ikegami M, et al. Intratracheal recombinant surfactant protein D prevents endotoxin shock in the newborn preterm lamb. Am J Respir Crit Care Med 2006; 173:1342-1347). BALF was recovered from the left lung (Ikegami M, et al. Whitsett J A. Intratracheal recombinant surfactant protein D prevents endotoxin shock in the newborn preterm lamb. Am J Respir Crit Care Med 2006; 173:1342-1347) for further analyses. Total proteins were analyzed (Lowry O H, et al. Protein measurement with the Folin phenol reagent. J Biol Chem 1951; 193:265-275) in the supernatant of BALF after 10 minutes of centrifugation at 284×g. The right upper lobe was inflation-fixed at 30 cm H2O for morphology (Ikegami M, et al. Surfactant protein-D regulates the postnatal maturation of pulmonary surfactant lipid pool sizes. J Appl Physiol 2009; 106:1545-1552). […]

[3] = Surface tension by captive bubble surfactometer; assay type: physicochemical; conditions: 15 μg/μL SURVANTA with 2% rhSP-D or buffer
Description: (§1) Surface tension was measured by captive bubble surfactometer (Schoel M, et al. The captive bubble method for the evaluation of pulmonary surfactant: surface tension, area, and volume calculations. Biochim Biophys Acta 1994; 1200:281-290) on 3 μL of samples containing 15 μg/μL […]® and 2% rhSP-D or buffer in the presence or absence of surfactant inhibitor (21 μg/μL plasma protein) (Ikegami M, et al. Characteristics of surfactant from SP-A deficient mice. Am J Physiol Lung Cell Mol Physiol 1998; 275:L247-L25). This amount of plasma protein relative to […]® was 30% lower than the concentration that is known to inhibit the activity of […]® in the ventilated premature newborn lamb lung in vivo (Wada K, et al. Tidal volume effects on surfactant treatment responses with the initiation of ventilation in preterm lambs. J Appl Physiol 1997; 83:1054-1061). The influence of rhSP-D on the ultrastructure of […]® was studied as previously described (Schmiedl A, et al. Influence of plasma and inflammatory proteins on the ultrastructure of exogenous surfactant. J Electron Microsc (Tokyo) 2004; 53:407-416).

[4] = Ultrastructure of surfactant mixtures (electron micrographs); assay type: physicochemical; conditions: SURVANTA mixed with buffer or rhSP-D
Description: as §1

[5] = CD45-positive cells from BALF, flow cytometry
[6] = premature lambs, five hours of ventilation, +rhSP-D vs control
[7] = premature lambs, mean levels decreased by rhSP-D

B1: rhSP-D: recombinant human surfactant protein D, given mixed with SURVANTA to premature lambs (protein, UniProt P35247 21-375, looked up)
Pulmonary …: AEMKTYSHRTMPSACTLVMCSSVESGLPGRDGRDGREGPRGEKGDPGLPGAAGQAGMPGQAGPVGPKGDNGSVGEPGPKGDTGPSGPPGPPGVPGPAGREGPLGKQGNIGPQGKPGPKGEAGPKGEVGAPGMQGSAGARGLAGPKGERGVPGERGVPGNTGAAGSAGAMGPQGSPGARGPPGLKGDKGIPGDKGAKGESGLPDVASLRQQVEALQGQVQHLQAAFSQYKKVELFPNGQSVGEKIFKTAGFVKPFTEAQLLCTQAGGQLASPRSAAENAALQQLVVAKNEAAFLSMTDSKTEGKFTYPTGESLVYSNWAPGEPNDDGGSEDCVEIFTNGKWNDRACGEKRLVVCEF
mean PIP required to regulate VT at 8 to 9 ml/kg ([1]; premature lambs after surfactant at 20 minutes of age, same for controls): 27 cm H2O
Po2/Fio2 ([1]; premature lambs, 7 mg rhSP-D mixed with SURVANTA 100 mg/kg vs SURVANTA+buffer control, P<0.01): higher
alveolar fluid ([1]; premature lambs, +rhSP-D vs control): More fluid was noted in alveoli of the control lambs; also recorded: More alveolar fluid was observed in control lambs
modified ventilation index (MVI) ([1]; premature lambs, +rhSP-D vs control, after 240 minutes, not statistically significant): tends to be better (lower)
deflation limb of pressure-volume curves ([1]; premature lambs, +rhSP-D vs control, after five hours): not different
expression of CD11b [2, 5]: did not influence expression
expression of CD44 [2, 5]: did not influence expression
proteins in BALF ([2]; premature lambs, +rhSP-D group, control group 60±7): 57 ± 11 mg/kg
lung inflammation ([2]; premature lambs, five hours of ventilation): decreased in all the lambs treated with rhSP-D
neutrophils in BALF [2, 6]: significantly decreased; also recorded: suppressed
total inflammatory cell numbers in BALF [2, 6]: significantly decreased; also recorded: suppressed
IL-1β protein in the lung ([2]; premature lambs, ELISA): not significantly influenced
IL-8 protein in lung homogenates ([2]; premature lambs, ELISA, +rhSP-D vs control): significantly decreased
IL-1β mRNA in the lung ([2]; premature lambs, RT-PCR): not significantly influenced; also recorded: generally lower
IL-8 mRNA in the lung ([2]; premature lambs, RT-PCR, +rhSP-D vs control): significantly decreased; also recorded: significantly suppressed
TNF-α mRNA expression ([2]; premature lambs, data not shown): similarly present at low levels in both groups
KC mRNA in the lung [2, 7]: not significantly different; also recorded: generally lower
MCP1 mRNA in the lung [2, 7]: not significantly different; also recorded: generally lower
IL-6 mRNA expression in the lung ([2]; premature lambs, mean, P=0.06, not statistically significant): generally lower
IL-6 protein in the lung ([2]; premature lambs, mean, P=0.1, not statistically significant): lower
neutrophil elastase (NE) activity in the lung ([2]; premature lambs, rhSP-D added to SURVANTA vs control, P<0.05): decreased NE activity
minimum surface tension ([3]; absence of plasma protein): low
minimum surface tension ([3]; presence of surfactant inhibitor (21 μg/μL plasma protein)): remaining low; also recorded: low minimum surface tension in the presence of plasma protein
ultrastructure of surfactant [4]: causing the formation of lipid aggregates and multilayers; also recorded: from simple lipid layers to the mixture of multiple lipid layers and lipid aggregates
